Values joined by “and” are separate entries in the source; they are usually repeats but may differ in a detail not shown here. Identical values can stand only once.
Legend:
[1] = target: Human chorionic gonadotropin (human) (UniProt P01215); experiment: multiplex no-wash sandwich, MAB602 beads; serum Level 3D, hCG 218 mU/mL
[2] = target: Human chorionic gonadotropin (human) (UniProt P01215); experiment: sandwich, MAB602 capture beads, flow cytometry; hCG 0.002 ng/mL
[3] = target: Human chorionic gonadotropin (human) (UniProt P01215); experiment: multiplex sandwich, MAB602 capture beads; hCG 1000 ng/mL, no wash
[4] = target: Alpha fetoprotein (UniProt P02771); experiment: MAB602 capture beads, flow cytometry; AFP 1000.0 ng/mL, anti-hCG probe
[5] = target: Human chorionic gonadotropin (human) (UniProt P01215); experiment: sandwich, MAB602 capture beads, flow cytometry; hCG 20000 ng/mL
[6] = target: Human chorionic gonadotropin (human) (UniProt P01215); experiment: MAB602 capture beads, flow cytometry; hCG 100.0 ng/mL, anti-hCG probe
[7] = target: Human chorionic gonadotropin (human) (UniProt P01215); experiment: multiplex sandwich, MAB602 capture beads; hCG 125 ng/mL, no wash
[8] = target: Alpha fetoprotein (UniProt P02771); experiment: MAB602 capture beads, flow cytometry; AFP 100.0 ng/mL, anti-hCG probe
[9] = target: Alpha fetoprotein (UniProt P02771); experiment: anti-AFP capture beads, flow cytometry; AFP 1.0 ng/mL, anti-hCG probe
[10] = target: Alpha fetoprotein (UniProt P02771); experiment: anti-AFP capture beads, flow cytometry; AFP 10.0 ng/mL, anti-hCG probe
[11] = target: Human chorionic gonadotropin (human) (UniProt P01215); experiment: bead sandwich, flow cytometry; capture A1 beads, hCG 20.0 ug/mL
[12] = target: Human chorionic gonadotropin (human) (UniProt P01215); experiment: multiplex sandwich, MAB602 capture beads; hCG 1 ng/mL, no wash
[13] = target: Alpha fetoprotein (UniProt P02771); experiment: anti-AFP capture beads, flow cytometry; AFP 1.0 ng/mL, anti-AFP probe
[14] = target: Alpha fetoprotein (UniProt P02771); experiment: multiplex sandwich, S10473 capture beads; AFP 0.5 ng/mL, washed
[15] = target: Alpha fetoprotein (UniProt P02771); experiment: multiplex sandwich, S10473 capture beads; AFP 8 ng/mL, washed
[16] = target: Human chorionic gonadotropin (human) (UniProt P01215); experiment: MAB602 capture beads, flow cytometry; hCG 10.0 ng/mL, anti-AFP probe
[17] = target: Alpha fetoprotein (UniProt P02771); experiment: multiplex sandwich, S10473 capture beads; AFP 0 ng/mL, washed
[18] = target: Alpha fetoprotein (UniProt P02771); experiment: multiplex no-wash sandwich, S10473 beads; Unknown serum, AFP computed 39.59 U/mL
[19] = target: Alpha fetoprotein (UniProt P02771); experiment: multiplex sandwich, S10473 capture beads; AFP 8 ng/mL, no wash
[20] = target: Alpha fetoprotein (UniProt P02771); experiment: multiplex sandwich, S10473 capture beads; AFP 4 ng/mL, washed
[21] = target: Alpha fetoprotein (UniProt P02771); experiment: multiplex sandwich, S10473 capture beads; AFP 4 ng/mL, no wash
[22] = target: Alpha fetoprotein (UniProt P02771); experiment: multiplex sandwich, S10473 capture beads; AFP 0.25 ng/mL, washed
[23] = target: Alpha fetoprotein (UniProt P02771); experiment: multiplex sandwich, S10473 capture beads; AFP 0 ng/mL, no wash
[24] = target: Human chorionic gonadotropin (human) (UniProt P01215); experiment: anti-AFP capture beads, flow cytometry; hCG 10.0 ng/mL, anti-AFP probe
[25] = target: Alpha fetoprotein (UniProt P02771); experiment: multiplex no-wash sandwich, S10473 beads; serum Level 2, AFP 53.8 U/mL
[26] = target: Alpha fetoprotein (UniProt P02771); experiment: anti-AFP capture beads, flow cytometry; AFP 0.1 ng/mL, anti-AFP probe
[27] = target: Alpha fetoprotein (UniProt P02771); experiment: multiplex sandwich, S10473 capture beads; AFP 500 ng/mL, no wash
[28] = target: Alpha fetoprotein (UniProt P02771); experiment: multiplex no-wash sandwich, S10473 beads; serum Level 3D, AFP 111.5 U/mL
[29] = target: Alpha fetoprotein (UniProt P02771); experiment: multiplex no-wash sandwich, S10473 beads; serum Level 1, AFP 10.7 U/mL
[30] = target: Neutravidin (deglycosylated avidin) (UniProt P02701); experiment: multiplex, Neutravidin bead 40/50 without peptide, flow cytometry
[31] = target: Neutravidin (deglycosylated avidin) (UniProt P02701); experiment: multiplex, Neutravidin bead 60/70 without peptide, flow cytometry
[32] = target: Neutravidin (deglycosylated avidin) (UniProt P02701); experiment: multiplex, Neutravidin bead 70/70 without peptide, flow cytometry
[33] = target: Peptide 4 …-biotin; experiment: multiplex peptide beads, flow cytometry; no free biotin
[34] = target: Peptide 7 …-biotin; experiment: as above
[35] = target: Peptide 6 …-biotin; experiment: as above
[36] = target: Peptide 1 …-biotin; experiment: as above
[37] = target: Peptide 2 …-biotin; experiment: as above
[38] = target: Peptide 8 …-biotin; experiment: as above
[39] = target: Peptide 3 …-biotin; experiment: as above
[40] = target: Peptide 9 …-biotin; experiment: as above
[41] = target: Peptide 5 …-biotin (human); experiment: as above
[42] = target: Neutravidin (deglycosylated avidin) (UniProt P02701); experiment: single-analyte, Neutravidin bead 40/60 without peptide, flow cytometry
[43] = target: Neutravidin (deglycosylated avidin) (UniProt P02701); experiment: single-analyte, Neutravidin bead 70/40 without peptide, flow cytometry

Chain of UniProt P02771 (P02771 19-609 limits assumed): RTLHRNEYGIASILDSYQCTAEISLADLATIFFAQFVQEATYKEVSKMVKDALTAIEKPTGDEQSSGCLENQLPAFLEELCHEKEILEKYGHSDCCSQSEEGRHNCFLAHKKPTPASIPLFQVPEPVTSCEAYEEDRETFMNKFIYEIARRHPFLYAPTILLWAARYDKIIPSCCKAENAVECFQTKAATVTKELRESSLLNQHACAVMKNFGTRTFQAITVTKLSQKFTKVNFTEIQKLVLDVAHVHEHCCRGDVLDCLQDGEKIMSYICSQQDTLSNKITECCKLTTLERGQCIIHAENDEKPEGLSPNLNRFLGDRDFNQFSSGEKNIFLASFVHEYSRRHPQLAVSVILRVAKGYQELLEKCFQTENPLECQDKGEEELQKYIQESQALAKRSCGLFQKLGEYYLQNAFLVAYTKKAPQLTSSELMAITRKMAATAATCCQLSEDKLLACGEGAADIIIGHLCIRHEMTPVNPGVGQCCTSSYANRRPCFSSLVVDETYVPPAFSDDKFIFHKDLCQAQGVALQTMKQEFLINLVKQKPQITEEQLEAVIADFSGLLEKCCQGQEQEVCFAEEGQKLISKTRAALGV
Chain of UniProt P01215 (P01215 25-116, chain 1 of 2, other chains not shown): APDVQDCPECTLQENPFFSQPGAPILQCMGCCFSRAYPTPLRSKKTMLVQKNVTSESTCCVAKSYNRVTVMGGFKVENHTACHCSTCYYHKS
Chain of UniProt P02701 (P02701 25-152 limits assumed): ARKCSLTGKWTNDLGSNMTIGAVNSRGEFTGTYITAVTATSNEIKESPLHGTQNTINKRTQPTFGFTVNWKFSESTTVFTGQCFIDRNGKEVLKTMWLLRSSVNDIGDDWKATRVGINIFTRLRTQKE

For “AB633 affinity purified polyclonal anti-hCG antibody, Bodipy FL-CASE labeled”, the MIF AVG [1] was 272, the MIF of FL1 [1] was 268 and 276 and 271 and the MIF of Fm [2] was 122 and 121. The MIF of Fm [3] was 770, the MIF of Fm [4] was 53 and the MIF of Fm [5] was 9340 and 9220. The MIF of Fm [6] was 761, the MIF of Fm [7] was 2070 and the MIF of Fm [8] was 47. For the same substance, the MIF of Fm [9] was 50, the MIF of Fm [10] was 44 and the MIF of Fm [11] was 8790. For the same substance, the MIF of Fm [12] was 330.
Substance “M20077 affinity purified polyclonal anti-AFP antibody, Bodipy FL-CASE labeled” has an MIF of Fm [13] of 98, an MIF of Fm [14] of 25 and an MIF of Fm [15] of 205. It also gave an MIF of Fm [16] of 47, an MIF of Fm [17] of 13 and an MIF AVG [18] of 276. The MIF of FL1 [18] was 268 and 274 and 286, the MIF of Fm [19] was 190 and the MIF of Fm [20] was 108. For the same substance, the MIF of Fm [21] was 94, the MIF of Fm [22] was 24 and the MIF of Fm [23] was 15. For the same substance, the MIF of Fm [24] was 45, the MIF AVG [25] was 363 and the MIF of FL1 [25] was 351 and 365 and 372. The MIF of Fm [26] was 44, the MIF of Fm [27] was 643 and the MIF AVG [28] was 552. The MIF of FL1 [28] was 535 and 562 and 559, the MIF AVG [29] was 78 and the MIF of FL1 [29] was 74 and 83 and 77.
MAB 384, Bodipy FL-X labeled (antibody) showed an MIF of Fm [30] of 27, an MIF of Fm [31] of 36 and an MIF of Fm [32] of 25. For the same substance, the MIF [33] was 20, the MIF [34] was 19 and the MIF [35] was 32. It also gave an MIF [36] of 13, an MIF [37] of 17 and an MIF [38] of 31. The MIF [39] was 20, the MIF [40] was 31 and the MIF [41] was 915. The MIF of Fm [42] was 54 and the MIF of Fm [43] was 60.

From patent US20040059519A1
